Data taken from PMC2952587, “Identification of the Essential Brucella melitensis Porin Omp2b as a Suppressor of Bax-Induced Cell Death in Yeast in a Genome-Wide Screening” (PLoS ONE, 2010).

Target: the molecule itself
Test: semi-denaturing gel with Western blot

B1: Brucella melitensis porin Omp2b (natural protein)
chain: ADAIVAPEPEAVEYVRVCDAYGAGYFYIPGTEICLRVHGYVRYDVKGGDDVYSGTDRNGWDKGARFALRVSTGSETELGTLKTFTELRFNYAANNSGVDGKYGNETSSGTVMEFAYIQLGGLRVGIDESEFHTFTGYLGDVINDDVISAGSYRTGKISYTFTGGNGFSAVIALEQGGDNDGGYTGTTNYHIDGYMPDVVGGLKYAGGWGSIAGVVAYDSVIEEWAAKVRGDVNITDQFSVWLQGAYSSAATPDQNYGQWGGDWAVWGGLKYQATQKAAFNLQAAHDDWGKTAVTANVAYELVPGFTVTPEVSYTKFGGEWKNTVAEDNAWGGIVRFQRSF
notes: also called BMEI1305
B1 was tested, and the “stoichiometry N” value was 3.
